Laboratory results taken from article PMC5655542 (2017).

T1: H. polygyrus Alarmin Release Inhibitor (HpARI), recombinant mature 6-His and Myc-tagged protein (Heligmosomoides polygyrus)
T1 chain: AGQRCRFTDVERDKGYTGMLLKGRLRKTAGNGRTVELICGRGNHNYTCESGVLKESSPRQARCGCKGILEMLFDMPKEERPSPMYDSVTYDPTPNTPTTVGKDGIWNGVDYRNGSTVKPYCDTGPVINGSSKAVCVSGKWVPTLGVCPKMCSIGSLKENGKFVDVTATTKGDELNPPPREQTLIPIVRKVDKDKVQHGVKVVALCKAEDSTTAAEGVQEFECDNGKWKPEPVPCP


Molecular target: T1, H. polygyrus Alarmin Release Inhibitor …
Assay: SPR; 25°C

| Binder | koff |
| --- | --- |
| recombinant murine IL-33, untreated (reduced, active form) (ligand, reduced (free cysteines, no disulfides), active form; limits not given, taken as the usual commercial mature mouse IL-33 (Ser109-Ile266, UniProt chain 109-266)) SIQGTSLLTQSPASLSTYNDQSVSFVLENGCYVINVDDSGKDQEQDQVLLRYYESPCPASQSGDGVDGKKLMVNMSPIKDTDIWLHANDKDYSVELQRGDVSPPEQAFFVLHKKSSDFVSFECKNLPGTYIGVKDNQLALVEEKDESCNNIMFKLSKI | 0.00014 s⁻¹ |
| recombinant human IL-33, untreated (reduced, active form) (ligand) MKPKMKYSTNKISTAKWKNTASKALCFKLGKSQQKAKEVCPMYFMKLRSGLMIKKEACYFRRETTKRPSLKTGRKHKRHLVLAACQQQSTVECFAFGISGVQKYTRALHDSSITGISPITEYLASLSTYNDQSITFALEDESYEIYVEDLKKDEKKDKVLLSYYESQHPSNESGDGVDGKMLMVTLSPTKDFWLHANNKEHSVELHKCEKPLPDQAFFVLHNMHSNCVSFECKTDPGVFIGVKDNHLALIKVDSSENLCTENILFKLSET | 0.004 s⁻¹ |
